Experimental data from article doi:10.1101/2023.08.10.552762.
Each block holds one molecule with its values, some of them ahead of it.

Columns and labels:
[1] = molecular target: Escherichia coli SduA (Shedu system, E. coli KTE10) (Escherichia coli KTE10); experiment: SEC-MALS
EcSduA (Shedu SduA) [2] = molecular target: T1, EcSduA (Shedu SduA) (Escherichia coli, UniProt PDB:8PS5_1 1-411); experiment: cryo-EM structure
T1 sequence: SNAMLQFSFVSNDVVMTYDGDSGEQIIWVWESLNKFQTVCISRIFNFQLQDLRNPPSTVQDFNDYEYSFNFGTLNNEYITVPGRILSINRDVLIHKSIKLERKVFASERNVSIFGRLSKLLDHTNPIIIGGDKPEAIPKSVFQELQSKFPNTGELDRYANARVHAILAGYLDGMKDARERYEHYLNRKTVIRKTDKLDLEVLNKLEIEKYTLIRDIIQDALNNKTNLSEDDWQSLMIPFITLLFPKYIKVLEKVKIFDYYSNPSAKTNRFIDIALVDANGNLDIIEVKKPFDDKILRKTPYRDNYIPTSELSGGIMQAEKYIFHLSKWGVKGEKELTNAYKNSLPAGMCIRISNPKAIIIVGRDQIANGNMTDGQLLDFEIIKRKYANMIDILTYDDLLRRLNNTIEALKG

EcSduA (Shedu SduA) [3] = molecular target: T1, EcSduA (Shedu SduA); experiment: fluorescence polarization

- stoichiometry N [1]: 4
Molecule: Escherichia coli SduA (Shedu system, E. coli KTE10) (enzyme)

B1: 40 bp palindromic dsDNA oLL314 (dsDNA)
DNA 1: CTAGTGCATCTGAATCGTCATGACGATTCAGATGCACTAG
DNA 2: B1 DNA 1
- binding result (EcSduA (Shedu SduA) [2]): binds

B2: 40 bp dsDNA oLL321/oLL322 (dsDNA)
DNA 1: GATACCAGCTCTATGTTGACCTCTCAGATCGGCACTACTT
DNA 2: AAGTAGTGCCGATCTGAGAGGTCAACATAGAGCTGGTATC
- Kd (EcSduA (Shedu SduA) [3]): 11.9 ± 0.4 nM
